This note sets out measurements from paper PMC4010543.

Data set [1] in a line: TEPC-15 immunoblot, whole cell lysates. The following applies: control: wild-type pgl (disaccharide Ac-Gal-diNAcBac), same pilE copy number. A general note: A western blot detects proteins with antibodies after separation by electrophoresis.
The nature of data set [2]: TEPC-15 immunoblot, pilF mutant lysates. The following applies: glycan gained; control: pglC pilF (no glycan).

B1: PilE: pglC null (protein)
parent chain: MNTLQKGFTLIELMIVIAIVGILAAVALPAYQDYTARAQVSEAILLAEGQKSAVTEYYLNHGKWPENNTSAGVASPPSDIKGKYVKEVEVKNGVVTATMLSSGVNNEIKGKKLSLWARRENGSVKWFCGQPVTRTDDDTVADAKDGKEIDTKHLPSTCRDNFDAK
Regarding B1, the “other: phosphocholine modification of PilE” value (“other … of PilE” below) in data set [1] (glycan lost) is recorded as “increases”.

B2: PilE: pglE ON pilF (trisaccharide) (protein)
parent chain: B1 parent chain
Turning to B2, the “other … of PilE” value in data set [2] is recorded as “no change”.

B3: PilE: pglE ON (trisaccharide) in 2xpilE and 3xpilE (protein)
parent chain: B1 parent chain
B3: the “other … of PilE” value in data set [1] (glycan changed form) is given as “decreases”.
